These results are taken from US7429646.

The target of the test is its ligand (ligand of TR2, not identified). Put plainly: cell-based or functional assay.

Consider “TR2-Fc fusion protein (TR2 extracellular domain fused to human IgG1 Fc, pcDNA3, NIH 3T3) (from UniProt Q92956 37-200)”, for which the allogeneic MLR-mediated proliferation of PBMC ([3H]-thymidine incorporation) is < 53%.
